To fix the notation:
T1: Tom20 (human (endogenous in fibroblasts and …, UniProt Q15388 1-145))
T1 construct: Tom20, mitochondria-specific marker, human, endogenous; source: endogenous, in fibroblasts and iPSC-derived motor neurons
T1 sequence (looked up): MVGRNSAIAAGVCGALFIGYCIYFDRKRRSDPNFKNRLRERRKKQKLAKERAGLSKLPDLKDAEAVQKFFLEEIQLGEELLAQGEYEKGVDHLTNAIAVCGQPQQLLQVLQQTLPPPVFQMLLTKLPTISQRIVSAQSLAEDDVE

B1: Fused in Sarcoma (FUS), endogenous wild type (natural protein, UniProt P35637 1-526, looked up)
chain: MASNDYTQQATQSYGAYPTQPGQGYSQQSSQPYGQQSYSGYSQSTDTSGYGQSSYSSYGQSQNTGYGTQSTPQGYGSTGGYGSSQSSQSSYGQQSSYPGYGQQPAPSSTSGSYGSSSQSSSYGQPQSGSYSQQPSYGGQQQSYGQQQSYNPPQGYGQQNQYNSSSGGGGGGGGGGNYGQDQSSMSSGGGSGGGYGNQDQSGGGGSGGYGQQDRGGRGRGGSGGGGGGGGGGYNRSSGGYEPRGRGGGRGGRGGMGGSDRGGFNKFGGPRDQGSRHDSEQDNSDNNTIFVQGLGENVTIESVADYFKQIGIIKTNKKTGQPMINLYTDRETGKLKGEATVSFDDPPSAKAAIDWFDGKEFSGNPIKVSFATRRADFNRGGGNGRGGRGRGGPMGRGGYGGGGSGGGGRGGFPSGGGGGGGQQRAGDWKCPNPTCENMNFSWRNECNQCKAPKPDGPGGGPGGSHMGGNYGDDRRGGRGGYDRGGYRGRGGDRGGFRGGRGGGDRGGFGPGKMDSRGEHRQDRRERPY
notes: Fused in Sarcoma (FUS), human, endogenous wild type; also called FUS WT; WT FUS; source: endogenous, in HEK293 cells, control fibroblasts, iPSC-derived motor neurons and NPSCs
B2: FUS R521H, endogenous mutant of ALS patient-derived cells (natural protein, UniProt P35637 1-526, looked up)
chain: B1 chain with R521H
notes: Fused in Sarcoma (FUS), human, with the ALS patient mutation R521H; source: endogenous, in ALS patient-derived fibroblasts and iPSC-derived motor neurons
B3: FUS P525L, endogenous mutant of ALS patient-derived cells (natural protein, UniProt P35637 1-526, looked up)
chain: B1 chain with P525L
notes: Fused in Sarcoma (FUS), human, with the ALS patient mutation P525L; source: endogenous, in ALS patient-derived fibroblasts, iPSC-derived motor neurons and NPSCs
B4: mtDNA Ligase IIIα (mtLig3) (enzyme, UniProt P49916 43-1009, looked up)
chain: LLHGHPLFLRRKPVLSFQGSHLRSRATYLVFLPGLHVGLCSGPCEMAEQRFCVDYAKRGTAGCKKCKEKIVKGVCRIGKVVPNPFSESGGDMKEWYHIKCMFEKLERARATTKKIEDLTELEGWEELEDNEKEQITQHIADLSSKAAGTPKKKAVVQAKLTTTGQVTSPVKGASFVTSTNPRKFSGFSAKPNNSGEAPSSPTPKRSLSSSKCDPRHKDCLLREFRKLCAMVADNPSYNTKTQIIQDFLRKGSAGDGFHGDVYLTVKLLLPGVIKTVYNLNDKQIVKLFSRIFNCNPDDMARDLEQGDVSETIRVFFEQSKSFPPAAKSLLTIQEVDEFLLRLSKLTKEDEQQQALQDIASRCTANDLKCIIRLIKHDLKMNSGAKHVLDALDPNAYEAFKASRNLQDVVERVLHNAQEVEKEPGQRRALSVQASLMTPVQPMLAEACKSVEYAMKKCPNGMFSEIKYDGERVQVHKNGDHFSYFSRSLKPVLPHKVAHFKDYIPQAFPGGHSMILDSEVLLIDNKTGKPLPFGTLGVHKKAAFQDANVCLFVFDCIYFNDVSLMDRPLCERRKFLHDNMVEIPNRIMFSEMKRVTKALDLADMITRVIQEGLEGLVLKDVKGTYEPGKRHWLKVKKDYLNEGAMADTADLVVLGAFYGQGSKGGMMSIFLMGCYDPGSQKWCTVTKCAGGHDDATLARLQNELDMVKISKDPSKIPSWLKVNKIYYPDFIVPDPKKAAVWEITGAEFSKSEAHTADGISIRFPRCTRIRDDKDWKSATNLPQLKELYQLSKEKADFTVVAGDEGSSTTGGSSEENKGPSGSAVSRKAPSKPSASTKKAEGKLSNSNSKDGNMQTAKPSAMKVGEKLATKSSPVKVGEKRKAADETLCQTKVLLDIFTGVRLYLPPSTPDFSRLRRYFVAFDGDLVQEFDMTSATHVLGSRDKNPAAQQVSPEWIWACIRKRRLVAPC
notes: DNA ligase IIIα, human, endogenous; also called LigIII; mitochondrial version of Lig3; source: endogenous, in HEK293 cells, fibroblasts, iPSC-derived motor neurons and NPSCs

What all share (settings): partners not purified
Experiment [1] deals with T1, Tom20. In words: proximity ligation; Duolink in situ PLA on fixed, permeabilised control and patient iPSC-derived motor neurons (Fig. 1e, 4e); with or without GO; MitoTracker green counterstain; foci counted in 25 cells.
The target in experiment [2] is T1, Tom20. Description: proximity ligation; Duolink in situ PLA on fixed, permeabilised cells with anti-FUS and anti-Tom20 or anti-HSP60; patient derived fibroblasts and motor neurons (Fig. 1c, d; the panel's cell type is not told); untreated or glucose oxidase (GO).
The next experiment deals with T2, HSP60 (human (endogenous in fibroblasts and …, UniProt P10809 27-573)).
T2 construct: HSP60, mitochondria-specific marker, human, endogenous; source: endogenous, in fibroblasts and motor neurons
T2 sequence (P10809 27-573): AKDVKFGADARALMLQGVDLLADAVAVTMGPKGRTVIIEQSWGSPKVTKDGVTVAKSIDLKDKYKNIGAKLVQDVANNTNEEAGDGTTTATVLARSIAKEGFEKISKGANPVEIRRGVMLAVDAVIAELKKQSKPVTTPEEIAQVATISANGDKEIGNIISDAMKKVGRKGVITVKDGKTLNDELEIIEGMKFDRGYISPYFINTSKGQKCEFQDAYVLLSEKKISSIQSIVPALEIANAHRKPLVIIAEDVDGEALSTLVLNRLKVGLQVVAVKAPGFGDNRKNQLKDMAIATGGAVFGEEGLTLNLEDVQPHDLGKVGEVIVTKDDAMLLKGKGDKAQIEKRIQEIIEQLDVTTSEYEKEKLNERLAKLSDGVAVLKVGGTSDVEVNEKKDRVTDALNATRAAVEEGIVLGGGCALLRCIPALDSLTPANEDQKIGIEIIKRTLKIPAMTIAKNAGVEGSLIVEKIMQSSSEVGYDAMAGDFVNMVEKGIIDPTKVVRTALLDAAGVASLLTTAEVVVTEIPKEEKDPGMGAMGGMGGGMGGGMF
Described as above.

In experiment [3] the target is B2. Description: proximity ligation; Duolink in situ PLA on fixed, permeabilised control and patient iPSC-derived motor neurons (Fig. 1e, 4e); with or without GO; MitoTracker green counterstain; foci counted in 25 cells.
For experiment [4], the target named is B3. The description is as above.
Experiment [5] deals with B1. The description is as above.

The source of these data is PMC10925063, “FUS unveiled in mitochondrial DNA repair and targeted ligase-1 expression rescues repair-defects in FUS-linked motor neuron disease” (Nature Communications, 2024).

Residue numbers refer to the chain shown, from its start. Names may count otherwise.

As to B1, the “PLA foci, median (GO)” value with Tom20 [1] stood at 4 PLA foci; with HSP60, 36 PLA foci. Besides, the “PLA foci, median (untreated)” value is 1 PLA foci in the experiment with Tom20 [1], 24 PLA foci with Tom20 [2] and 12 PLA foci with HSP60.
For B2, in that order: 9 PLA foci, 56 PLA foci, 4 PLA foci, 89 PLA foci and 27 PLA foci.
Regarding B3, the “PLA foci, median (GO)” value in the experiment with Tom20 [1] is 13 PLA foci; with HSP60, 64 PLA foci. The “PLA foci, median (untreated)” value with Tom20 [1] came to 4 PLA foci; with Tom20 [2], 218 PLA foci; with HSP60 it was 51 PLA foci.
B4: the “PLA foci, median (GO)” value in experiment [3] is 4 PLA foci; in experiment [4], 2 PLA foci; in experiment [5] it was 8 PLA foci.
